Results reported in patent US20180362632A1 (published 2018).
“And” between values parts separate entries of the source, which are not always exact repeats. Identical values can stand only once.

What follows are binders tested against T1, recombinant human GM-CSF protein (human, UniProt P04141 18-144) (assay: ELISA).
T1 sequence (P04141 18-144): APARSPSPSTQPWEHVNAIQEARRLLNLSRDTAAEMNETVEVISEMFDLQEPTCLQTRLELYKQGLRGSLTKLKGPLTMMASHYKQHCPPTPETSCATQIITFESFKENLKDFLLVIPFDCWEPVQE

| EC50 | Binder |
| --- | --- |
| 0.464 nM and 0.483 nM | 50C5 chimera (antibody, V domains shown) VH: QVQLQQSAAELVRPGASVKMSCKASGYIFTPYSIHWIKQRPGQGLEWIGYINPSTGYIEYNQHFKDRTTLTADKSSSTAYMQLRSLTSEDSAVYYCARGGDYEGYFDYWGQGTTLTVSS VL: DIQMTQSPDSLSASVGETVTITCRLNENIYSFLAWYQQRQGKSPQLLVYNAETLAEDVPSRFSGSGSGTQFSLKISSLQTDDFGTYYCQQHYGTPYTFGGGTNLEIE |
| 1.85 nM | Hu50C5-3 (antibody, V domains shown) VH: EVQLVQSGAEVKKPGSSVKVSCKASGGTFSPYSIHWVRQAPGQGLEWMGYINPSTGYIEYNQHFKDRVTITADKSTSTAYMELRSLRSEDTAVYYCARGGDYEGYFDYWGQGTTVTVSS VL: DIQMTQSPSSLSASVGDRVTITCRLNENIYSFLAWYQQKPGKAPKLLVYNAETLAEDVPSRFSGSGSGTDFTLTISSLQPEDFATYYCQQHYGTPYTFGGGTKVEIK |
| 0.844 nM | Hu50C5-7 (antibody, V domains shown) VH: EVQLVQSGAEVKKPGSSVKVSCKASGYIFSPYSIHWVRQAPGQGLEWMGYINPSTGYIEYNQHFKDRVTITADKSTSTAYMELRSLRSEDTAVYYCARGGDYEGYFDYWGQGTTVTVSS VL: DIQMTQSPSSLSASVGDRVTITCRLNENIYSFLAWYQQKPGKAPKLLVYNAETLAEGVPSRFSGSGSGTDFTLTISSLQPEDFATYYCQQHYGTPYTFGGGTKVEIK |
| 0.462 nM | Hu50C5-11 (antibody, V domains shown) VH: EVQLVQSGAEVKKPGSSVKVSCKASGYIFSPYSIHWVRQAPGQGLEWIGYINPSTGYIEYNQHFKDRVTITADKSTSTAYMELRSLRSEDTAVYYCARGGDYEGYFDYWGQGTTVTVSS VL: DIQMTQSPSSLSASVGDRVTITCRLNENIYSFLAWYQQKPGKAPKLLIYNAETLAEGVPSRFSGSGSGTDFTLTISSLQPEDFATYYCQQHYGTPYTFGGGTKVEIK |
| 3.24 nM | Hu50C5-12 (antibody, V domains shown) VH: EVQLVQSGAEVKKPGSSVKVSCKASGYIFSPYSIHWVRQAPGQGLEWIGYINPSTGYIEYNQHFKDRVTITADKSTSTAYMELRSLRSEDTAVYYCARGGDYEGYFDYWGQGTTVTVSS VL: DIQMTQSPSSLSASVGDRVTITCRLNENIYSFLAWYQQKPGKAPKLLVYNAETLAEGVPSRFSGSGSGTDFTLTISSLQPEDFATYYCQQHYGTPYTFGGGTKVEIK |
| 1.03 nM | Hu50C5-10 (antibody, V domains shown) VH: EVQLVQSGAEVKKPGSSVKVSCKASGYIFSPYSIHWVRQAPGQGLEWMGYINPSTGYIEYNQHFKDRVTITADKSTSTAYMELRSLRSEDTAVYYCARGGDYEGYFDYWGQGTTVTVSS VL: DIQMTQSPSSLSASVGDRVTITCRLNENIYSFLAWYQQKPGKSPKLLVYNAETLAEDVPSRFSGSGSGTQFTLTISSLQPEDFATYYCQQHYGTPYTFGGGTKVEIK |
| 0.438 nM | Hu50C5-8 (antibody, V domains shown) VH: EVQLVQSGAEVKKPGSSVKVSCKASGYIFSPYSIHWVRQAPGQGLEWMGYINPSTGYIEYNQHFKDRVTITADKSTSTAYMELRSLRSEDTAVYYCARGGDYEGYFDYWGQGTTVTVSS VL: DIQMTQSPSSLSASVGDRVTITCRLNENIYSFLAWYQQKPGKAPKLLVYNAETLAEDVPSRFSGSGSGTDFTLTISSLQPEDFATYYCQQHYGTPYTFGGGTKVEIK |

Biological target: T1, recombinant human GM-CSF protein
Test: ELISA
Remark: another data set of the same source

| Binder | EC50 |
| --- | --- |
| 50C5 chimera (antibody, V domains shown) VH: QVQLQQSAAELVRPGASVKMSCKASGYIFTPYSIHWIKQRPGQGLEWIGYINPSTGYIEYNQHFKDRTTLTADKSSSTAYMQLRSLTSEDSAVYYCARGGDYEGYFDYWGQGTTLTVSS VL: DIQMTQSPDSLSASVGETVTITCRLNENIYSFLAWYQQRQGKSPQLLVYNAETLAEDVPSRFSGSGSGTQFSLKISSLQTDDFGTYYCQQHYGTPYTFGGGTNLEIE | 0.547 nM |
| Hu50C5-15 (antibody, V domains shown) VH: EVQLVQSGAEVKKPGSSVKVSCKASGYIFSPYSIHWVRQAPGQGLEWIGYINPSTGYIEYNQHFKDRVTITADKSTSTAYMELRSLRSEDTAVYYCARGGDYEGYFDYWGQGTTVTVSS VL: DIQMTQSPSSLSASVGDRVTITCRLNENIYSFLAWYQQKPGKSPKLLVYNAETLAEDVPSRFSGSGSGTQFTLTISSLQPEDFATYYCQQHYGTPYTFGGGTKVEIK | 2.72 nM |

Second part, the binder after the results:

| EC50 | Binder |
| --- | --- |
| 0.356 nM | Hu50C5-23 (antibody, V domains shown) VH: EVQLVQSGAEVKKPGSSVKVSCKASGYIFTPYSIHWVRQAPGQGLEWIGYINPSTGYIEYNQHFKDRTTLTADKSTSTAYMELRSLRSEDTAVYYCARGGDYEGYFDYWGQGTTVTVSS VL: DIQMTQSPSSLSASVGDRVTITCRLNENIYSFLAWYQQKPGKAPKLLVYNAETLAEDVPSRFSGSGSGTDFTLTISSLQPEDFATYYCQQHYGTPYTFGGGTKVEIK |
| 0.612 nM | Hu50C5-18 (antibody, V domains shown) VH: EVQLVQSGAEVKKPGSSVKVSCKASGYIFSPYSIHWVRQAPGQGLEWIGYINPSTGYIEYNQHFKDRTTLTADKSTSTAYMELRSLRSEDTAVYYCARGGDYEGYFDYWGQGTTVTVSS VL: DIQMTQSPSSLSASVGDRVTITCRLNENIYSFLAWYQQKPGKAPKLLVYNAETLAEDVPSRFSGSGSGTDFTLTISSLQPEDFATYYCQQHYGTPYTFGGGTKVEIK |
| 0.305 nM | Hu50C5-20 (antibody, V domains shown) VH: EVQLVQSGAEVKKPGSSVKVSCKASGYIFSPYSIHWVRQAPGQGLEWIGYINPSTGYIEYNQHFKDRTTLTADKSTSTAYMELRSLRSEDTAVYYCARGGDYEGYFDYWGQGTTVTVSS VL: DIQMTQSPSSLSASVGDRVTITCRLNENIYSFLAWYQQKPGKSPKLLVYNAETLAEDVPSRFSGSGSGTQFTLTISSLQPEDFATYYCQQHYGTPYTFGGGTKVEIK |
| 0.305 nM | Hu50C5-24 (antibody, V domains shown) VH: EVQLVQSGAEVKKPGSSVKVSCKASGYIFTPYSIHWVRQAPGQGLEWIGYINPSTGYIEYNQHFKDRTTLTADKSTSTAYMELRSLRSEDTAVYYCARGGDYEGYFDYWGQGTTVTVSS VL: DIQMTQSPSSLSASVGDRVTITCRLNENIYSFLAWYQQKPGKAPKLLVYNAETLAEDVPSRFSGSGSGTQFTLTISSLQPEDFATYYCQQHYGTPYTFGGGTKVEIK |
| 0.215 nM | Hu50C5-17 (antibody, V domains shown) VH: EVQLVQSGAEVKKPGSSVKVSCKASGYIFSPYSIHWVRQAPGQGLEWIGYINPSTGYIEYNQHFKDRTTLTADKSTSTAYMELRSLRSEDTAVYYCARGGDYEGYFDYWGQGTTVTVSS VL: DIQMTQSPSSLSASVGDRVTITCRLNENIYSFLAWYQQKPGKAPKLLVYNAETLAEGVPSRFSGSGSGTDFTLTISSLQPEDFATYYCQQHYGTPYTFGGGTKVEIK |
| 0.272 nM | Hu50C5-19 (antibody, V domains shown) VH: EVQLVQSGAEVKKPGSSVKVSCKASGYIFSPYSIHWVRQAPGQGLEWIGYINPSTGYIEYNQHFKDRTTLTADKSTSTAYMELRSLRSEDTAVYYCARGGDYEGYFDYWGQGTTVTVSS VL: DIQMTQSPSSLSASVGDRVTITCRLNENIYSFLAWYQQKPGKAPKLLVYNAETLAEDVPSRFSGSGSGTQFTLTISSLQPEDFATYYCQQHYGTPYTFGGGTKVEIK |
| 0.339 nM | Hu50C5-21 (antibody, V domains shown) VH: EVQLVQSGAEVKKPGSSVKVSCKASGYIFTPYSIHWVRQAPGQGLEWIGYINPSTGYIEYNQHFKDRTTLTADKSTSTAYMELRSLRSEDTAVYYCARGGDYEGYFDYWGQGTTVTVSS VL: DIQMTQSPSSLSASVGDRVTITCRLNENIYSFLAWYQQKPGKAPKLLIYNAETLAEGVPSRFSGSGSGTDFTLTISSLQPEDFATYYCQQHYGTPYTFGGGTKVEIK |
| 0.46 nM | Hu50C5-16 (antibody, V domains shown) VH: EVQLVQSGAEVKKPGSSVKVSCKASGYIFSPYSIHWVRQAPGQGLEWIGYINPSTGYIEYNQHFKDRTTLTADKSTSTAYMELRSLRSEDTAVYYCARGGDYEGYFDYWGQGTTVTVSS VL: DIQMTQSPSSLSASVGDRVTITCRLNENIYSFLAWYQQKPGKAPKLLIYNAETLAEGVPSRFSGSGSGTDFTLTISSLQPEDFATYYCQQHYGTPYTFGGGTKVEIK |
| 0.889 nM | Hu50C5-22 (antibody, V domains shown) VH: EVQLVQSGAEVKKPGSSVKVSCKASGYIFTPYSIHWVRQAPGQGLEWIGYINPSTGYIEYNQHFKDRTTLTADKSTSTAYMELRSLRSEDTAVYYCARGGDYEGYFDYWGQGTTVTVSS VL: DIQMTQSPSSLSASVGDRVTITCRLNENIYSFLAWYQQKPGKAPKLLVYNAETLAEGVPSRFSGSGSGTDFTLTISSLQPEDFATYYCQQHYGTPYTFGGGTKVEIK |
